Bridge positions count the residues as written; N and C are the ends. Ends that are not written are not given here.
What was measured:
[1] = cited from earlier work
[2] = intravenously administered, rodent and feline species; cited from earlier work
[3] = molecular target: T1, human liver alpha-L-fucosidase (Homo sapiens, UniProt P04066); details: ref [12]; cited from earlier work
T1 sequence (P04066 32-466): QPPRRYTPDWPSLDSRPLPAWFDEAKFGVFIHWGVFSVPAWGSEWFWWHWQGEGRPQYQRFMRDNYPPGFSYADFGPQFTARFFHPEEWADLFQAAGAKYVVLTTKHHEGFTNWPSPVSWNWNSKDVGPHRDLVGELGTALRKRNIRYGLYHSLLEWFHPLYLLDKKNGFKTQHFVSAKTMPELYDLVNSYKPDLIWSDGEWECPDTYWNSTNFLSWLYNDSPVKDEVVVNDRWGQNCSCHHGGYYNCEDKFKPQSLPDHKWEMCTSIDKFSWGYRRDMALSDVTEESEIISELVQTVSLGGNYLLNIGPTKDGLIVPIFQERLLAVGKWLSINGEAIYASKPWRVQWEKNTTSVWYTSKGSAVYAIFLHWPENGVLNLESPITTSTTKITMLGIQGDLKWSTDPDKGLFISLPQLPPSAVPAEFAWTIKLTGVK

[4] = molecular target: T2, lysosomal fucosidase (Homo sapiens, UniProt P04066); experiment: fucosidase activity in lysates of treated HepG2 cells (4-MU-fucopyranoside); assay type: cell-based; details: 72 hours, versus buffer
T2 construct: Fucosidase activity in 20 μL of each lysate sample was measured; endogenous in cells; host or cells: HepG2
T2 sequence (P04066 32-466): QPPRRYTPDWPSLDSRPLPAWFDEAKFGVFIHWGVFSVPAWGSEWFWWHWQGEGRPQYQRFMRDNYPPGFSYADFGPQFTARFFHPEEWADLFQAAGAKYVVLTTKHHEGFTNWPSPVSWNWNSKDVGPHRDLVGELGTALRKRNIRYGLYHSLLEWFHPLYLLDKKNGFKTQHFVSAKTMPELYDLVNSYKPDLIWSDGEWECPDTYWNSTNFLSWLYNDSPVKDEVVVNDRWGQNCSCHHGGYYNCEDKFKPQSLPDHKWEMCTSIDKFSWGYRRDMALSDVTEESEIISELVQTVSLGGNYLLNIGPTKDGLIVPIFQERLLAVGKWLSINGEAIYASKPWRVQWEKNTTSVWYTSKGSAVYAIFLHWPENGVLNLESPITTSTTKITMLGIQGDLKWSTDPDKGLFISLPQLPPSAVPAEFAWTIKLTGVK
Experimental: HepG2 human hepatocellular carcinoma cells were seeded in 6-well tissue culture plates at 4×10^5 per well. […] Cells were then washed with cold PBS, scraped into a microfuge tube, pelleted and lysed. Total protein concentration was determined by Bradford assay for each sample and lysate volumes adjusted to 0.3 mg/mL. Fucosidase activity in 20 μL of each lysate sample was measured by adding 100 μL of 0.5 mM 4-MU-fucopyranoside with subsequent incubation at 37° C. for 30 minutes. Reactions were quenched with 130 μL of 600 mM citrate/carbonate buffer at pH 9. Released 4-MU was assayed in a fluorescence microplate reader (see Example 1 above). […] Duplicate sample activity values were averaged and plotted.

[5] = molecular target: T3, LRP1 (Homo sapiens, UniProt Q07954); details: read-out: affinity for LRP1; cited from earlier work
T3 sequence (Q07954 786-1165 limits assumed): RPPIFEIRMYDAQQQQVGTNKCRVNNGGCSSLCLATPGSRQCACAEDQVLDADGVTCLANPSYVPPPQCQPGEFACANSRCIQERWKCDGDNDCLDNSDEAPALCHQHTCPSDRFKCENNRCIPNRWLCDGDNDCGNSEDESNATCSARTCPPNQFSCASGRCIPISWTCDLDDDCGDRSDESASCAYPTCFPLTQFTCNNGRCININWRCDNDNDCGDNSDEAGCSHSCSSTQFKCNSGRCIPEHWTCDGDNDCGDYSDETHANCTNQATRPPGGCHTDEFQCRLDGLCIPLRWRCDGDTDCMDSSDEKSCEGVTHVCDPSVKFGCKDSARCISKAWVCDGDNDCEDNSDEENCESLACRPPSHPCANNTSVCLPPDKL

RAP: mature receptor associated protein, 323 amino acid peptide, SEQ ID NO: 1
circulating half-life ([1]; injected RAP, intravenous): less than a minute
exogenous RAP accumulating in the liver ([1]; intravenous bolus injection of 30 picomoles, within 10 minutes): over 70%
accumulation in heart, brain, muscle or kidney ([1]; intravenous): < 1 % of injected dose
toxicity [2]: no measurable toxicity

CCCCN1C[C@H](O)[C@@H](O)[C@H](O)[C@H](C(=O)O)C1 [Faz, (3R,4R,5S,6S)-1-butyl-4,5,6-trihydroxyazepane-3-carboxylic acid]
potency of fucosidase inhibition [3]: low nanomolar range

C[C@@H]1NC[C@@H](O)[C@H](O)[C@@H]1O [L-deoxyfuconojirimycin]
inhibition at 30 µM [4]: > 50%

mRAP14c: RAP residues 250-309 with substitutions F250C, L308G and Q309C (CEAKIEKHNHYQKQLEIAHEKLRHAESVGDGERVSRSREKHALLEGRTKELGYTVKKHGC; disulfide 1-60 (inferred))
Kd [5]: ~21 nM

B1: mRAPc: RAP d3 with the modifications A242G, R314G, E241C and I315C (peptide)
chain: CGFREELKHFEAKIEKHNHYQKQLEIAHEKLRHAESVGDGERVSRSREKHALLEGRTKELGYTVKKHLQDLSGGC
Kd [5]: ~10 nM

Reference: patent US20110189084A1, “Method for Treating Liver Disorders with Receptor Associated Protein (RAP) Peptide-Fucosidase Inhibitor Conjugates” (RAPTOR PHARMACEUTICAL INC., priority 2010, published 2011)
